Here are results for one molecule from article PMC11585616 (2024).

Where two headings read alike, the source gives them in different places.

Common to all, as to experiment: ITC
Assay [1] deals with T1, VcSiaP (Vibrio cholerae, UniProt Q9KR64 23-321).
Assay [2] addresses T1, VcSiaP. The source holds these as a separate data set.
Another assay has as its target HiSiaP (Haemophilus influenzae, UniProt P44542 24-329).

T1 sequence (Q9KR64 23-321): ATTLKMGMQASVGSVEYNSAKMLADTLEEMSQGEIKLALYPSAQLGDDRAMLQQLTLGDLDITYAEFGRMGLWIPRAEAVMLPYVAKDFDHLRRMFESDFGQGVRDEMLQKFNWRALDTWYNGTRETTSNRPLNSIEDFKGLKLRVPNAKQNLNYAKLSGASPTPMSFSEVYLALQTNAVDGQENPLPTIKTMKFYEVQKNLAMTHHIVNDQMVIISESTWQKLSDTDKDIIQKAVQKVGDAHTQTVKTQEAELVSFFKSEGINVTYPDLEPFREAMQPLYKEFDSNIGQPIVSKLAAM
Chain of HiSiaP (P44542 24-329): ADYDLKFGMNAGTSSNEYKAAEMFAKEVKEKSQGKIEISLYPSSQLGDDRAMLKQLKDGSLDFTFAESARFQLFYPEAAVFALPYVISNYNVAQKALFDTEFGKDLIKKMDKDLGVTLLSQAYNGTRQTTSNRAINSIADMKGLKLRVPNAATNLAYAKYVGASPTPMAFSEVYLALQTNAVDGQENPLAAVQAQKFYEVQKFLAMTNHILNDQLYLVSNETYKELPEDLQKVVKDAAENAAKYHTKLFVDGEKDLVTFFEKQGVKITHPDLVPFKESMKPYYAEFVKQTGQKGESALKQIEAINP

B1: VHHVcP #2 (VHH)
VHH: QVQLVESGGRLVQTGGSLRLSCAASGDTFSNYVMGWFRQAPGKEREFVAAISWTGANSYYADSVAGRFTISRDNAKNTVALQMNSLKPEDTAIYYCAADHFHVTHRKYDYWGQGTQVTVSS
Broadly, the Kd is a measure of binding affinity in units of concentration. Low values mean tighter binding, high ones weaker binding. B1: the Kd was found to be 5.61 nM with VcSiaP [1], 1.97 nM with VcSiaP [2] and 10700 nM with HiSiaP.
